B1: ROS-GC1 (rod outer segment guanylate cyclase type 1), full-length recombinant (Bos taurus; A1013R) (protein)
chain: AVFTVGVLGPWACDPIFARARPDLAARLAASRLNHAAALEGGPRFEVALLPEPCRTPGSLGAVSSALTRVSGLVGPVNPAACRPAELLAQEAGVALVPWGCPGTRAAGTTAPVVTPAADALYALLRAFRWAHVALVTAPQDLWVEAGHALSTALRARGLPVALVTSMEPSDLSGAREALRRVQDGPRVRAVIMVMHSVLLGGEEQRCLLEAAEELGLADGSLVFLPFDTLHYALSPGPDALAVLANSSQLRKAHDAVLTLTRHCPLGGSVRDSLRRAQEHRELPLDLNLQQVSPLFGTIYDSVFLLAGGVARARVAAGGGWVSGAAVARHIRDARVPGFCGALGGAEEPSFVLLDTDATGDQLFATYVLDPTQGFFHSAGTPVHFPKGGRGPGPDPSCWFDPDTICNGGVEPSVVFIGFLLVVGMGLAGAFLAHYCRHRLLHIQMVSGPNKIILTLDDITFLHPHGGNSRKVAQGSRTSLAARSISDVRSIHSQLPDYTNIGLYEGDWVWLKKFPGDRHIAIRPATKMAFSKIRELRHENVALYLGLFLAGGAGGPAAPGEGVLAVVSEHCARGSLQDLLAQRDIKLDWMFKSSLLLDLIKGIRYLHHRGVAHGRLKSRNCVVDGRFVLKVTDHGHGRLLEAQRVLPEPPSAEDQLWTAPELLRDPVLERRGTLAGDVFSLGIIMQEVVCRSAPYAMLELTPEEVVKRVQSPPPLCRPSVSIDQAPMECIQLMKQCWAEQPELRPSMDRTFELFKSINKGRKMNIIDSMLRMLEQYSSNLEDLIRERTEELELEKQKTDRLLTQMLPPSVAEALKMGTPVEPEYFEEVTLYFSDIVGFTTISAMSEPIEVVDLLNDLYTLFDAIIGSHDVYKVETIGDAYMVASGLPQRNGHRHAAEIANMALDILSAVGTFRMRHMPEVPVRIRIGLHSGPCVAGVVGLTMPRYCLFGDTVNTASRMESTGLPYRIHVNRSTVQILSALNEGFLTEVRGRTELKGKGAEETYWLVGRRGFNKPIPKPPDLQPGASNHGISLHEIPPDRRQKLEKARPGQFSGK
notes: full-length wild-type cDNA expressed in COS-7 cells; membrane fraction assayed; homodimer
B2: ROS-GC1 (rod outer segment guanylate cyclase type 1), full-length recombinant (Bos taurus; A1013R/D934A) (protein)
chain: AVFTVGVLGPWACDPIFARARPDLAARLAASRLNHAAALEGGPRFEVALLPEPCRTPGSLGAVSSALTRVSGLVGPVNPAACRPAELLAQEAGVALVPWGCPGTRAAGTTAPVVTPAADALYALLRAFRWAHVALVTAPQDLWVEAGHALSTALRARGLPVALVTSMEPSDLSGAREALRRVQDGPRVRAVIMVMHSVLLGGEEQRCLLEAAEELGLADGSLVFLPFDTLHYALSPGPDALAVLANSSQLRKAHDAVLTLTRHCPLGGSVRDSLRRAQEHRELPLDLNLQQVSPLFGTIYDSVFLLAGGVARARVAAGGGWVSGAAVARHIRDARVPGFCGALGGAEEPSFVLLDTDATGDQLFATYVLDPTQGFFHSAGTPVHFPKGGRGPGPDPSCWFDPDTICNGGVEPSVVFIGFLLVVGMGLAGAFLAHYCRHRLLHIQMVSGPNKIILTLDDITFLHPHGGNSRKVAQGSRTSLAARSISDVRSIHSQLPDYTNIGLYEGDWVWLKKFPGDRHIAIRPATKMAFSKIRELRHENVALYLGLFLAGGAGGPAAPGEGVLAVVSEHCARGSLQDLLAQRDIKLDWMFKSSLLLDLIKGIRYLHHRGVAHGRLKSRNCVVDGRFVLKVTDHGHGRLLEAQRVLPEPPSAEDQLWTAPELLRDPVLERRGTLAGDVFSLGIIMQEVVCRSAPYAMLELTPEEVVKRVQSPPPLCRPSVSIDQAPMECIQLMKQCWAEQPELRPSMDRTFELFKSINKGRKMNIIDSMLRMLEQYSSNLEDLIRERTEELELEKQKTDRLLTQMLPPSVAEALKMGTPVEPEYFEEVTLYFSDIVGFTTISAMSEPIEVVDLLNDLYTLFDAIIGSHDVYKVETIGAAYMVASGLPQRNGHRHAAEIANMALDILSAVGTFRMRHMPEVPVRIRIGLHSGPCVAGVVGLTMPRYCLFGDTVNTASRMESTGLPYRIHVNRSTVQILSALNEGFLTEVRGRTELKGKGAEETYWLVGRRGFNKPIPKPPDLQPGASNHGISLHEIPPDRRQKLEKARPGQFSGK
notes: as for B1
B3: ROS-GC1 (rod outer segment guanylate cyclase type 1), full-length recombinant (Bos taurus; A1013R/D890A) (protein)
chain: AVFTVGVLGPWACDPIFARARPDLAARLAASRLNHAAALEGGPRFEVALLPEPCRTPGSLGAVSSALTRVSGLVGPVNPAACRPAELLAQEAGVALVPWGCPGTRAAGTTAPVVTPAADALYALLRAFRWAHVALVTAPQDLWVEAGHALSTALRARGLPVALVTSMEPSDLSGAREALRRVQDGPRVRAVIMVMHSVLLGGEEQRCLLEAAEELGLADGSLVFLPFDTLHYALSPGPDALAVLANSSQLRKAHDAVLTLTRHCPLGGSVRDSLRRAQEHRELPLDLNLQQVSPLFGTIYDSVFLLAGGVARARVAAGGGWVSGAAVARHIRDARVPGFCGALGGAEEPSFVLLDTDATGDQLFATYVLDPTQGFFHSAGTPVHFPKGGRGPGPDPSCWFDPDTICNGGVEPSVVFIGFLLVVGMGLAGAFLAHYCRHRLLHIQMVSGPNKIILTLDDITFLHPHGGNSRKVAQGSRTSLAARSISDVRSIHSQLPDYTNIGLYEGDWVWLKKFPGDRHIAIRPATKMAFSKIRELRHENVALYLGLFLAGGAGGPAAPGEGVLAVVSEHCARGSLQDLLAQRDIKLDWMFKSSLLLDLIKGIRYLHHRGVAHGRLKSRNCVVDGRFVLKVTDHGHGRLLEAQRVLPEPPSAEDQLWTAPELLRDPVLERRGTLAGDVFSLGIIMQEVVCRSAPYAMLELTPEEVVKRVQSPPPLCRPSVSIDQAPMECIQLMKQCWAEQPELRPSMDRTFELFKSINKGRKMNIIDSMLRMLEQYSSNLEDLIRERTEELELEKQKTDRLLTQMLPPSVAEALKMGTPVEPEYFEEVTLYFSAIVGFTTISAMSEPIEVVDLLNDLYTLFDAIIGSHDVYKVETIGDAYMVASGLPQRNGHRHAAEIANMALDILSAVGTFRMRHMPEVPVRIRIGLHSGPCVAGVVGLTMPRYCLFGDTVNTASRMESTGLPYRIHVNRSTVQILSALNEGFLTEVRGRTELKGKGAEETYWLVGRRGFNKPIPKPPDLQPGASNHGISLHEIPPDRRQKLEKARPGQFSGK
notes: as for B1
B4: ROS-GC1 (rod outer segment guanylate cyclase type 1), full-length recombinant (Bos taurus; A1013R/E930A) (protein)
chain: AVFTVGVLGPWACDPIFARARPDLAARLAASRLNHAAALEGGPRFEVALLPEPCRTPGSLGAVSSALTRVSGLVGPVNPAACRPAELLAQEAGVALVPWGCPGTRAAGTTAPVVTPAADALYALLRAFRWAHVALVTAPQDLWVEAGHALSTALRARGLPVALVTSMEPSDLSGAREALRRVQDGPRVRAVIMVMHSVLLGGEEQRCLLEAAEELGLADGSLVFLPFDTLHYALSPGPDALAVLANSSQLRKAHDAVLTLTRHCPLGGSVRDSLRRAQEHRELPLDLNLQQVSPLFGTIYDSVFLLAGGVARARVAAGGGWVSGAAVARHIRDARVPGFCGALGGAEEPSFVLLDTDATGDQLFATYVLDPTQGFFHSAGTPVHFPKGGRGPGPDPSCWFDPDTICNGGVEPSVVFIGFLLVVGMGLAGAFLAHYCRHRLLHIQMVSGPNKIILTLDDITFLHPHGGNSRKVAQGSRTSLAARSISDVRSIHSQLPDYTNIGLYEGDWVWLKKFPGDRHIAIRPATKMAFSKIRELRHENVALYLGLFLAGGAGGPAAPGEGVLAVVSEHCARGSLQDLLAQRDIKLDWMFKSSLLLDLIKGIRYLHHRGVAHGRLKSRNCVVDGRFVLKVTDHGHGRLLEAQRVLPEPPSAEDQLWTAPELLRDPVLERRGTLAGDVFSLGIIMQEVVCRSAPYAMLELTPEEVVKRVQSPPPLCRPSVSIDQAPMECIQLMKQCWAEQPELRPSMDRTFELFKSINKGRKMNIIDSMLRMLEQYSSNLEDLIRERTEELELEKQKTDRLLTQMLPPSVAEALKMGTPVEPEYFEEVTLYFSDIVGFTTISAMSEPIEVVDLLNDLYTLFDAIIGSHDVYKVATIGDAYMVASGLPQRNGHRHAAEIANMALDILSAVGTFRMRHMPEVPVRIRIGLHSGPCVAGVVGLTMPRYCLFGDTVNTASRMESTGLPYRIHVNRSTVQILSALNEGFLTEVRGRTELKGKGAEETYWLVGRRGFNKPIPKPPDLQPGASNHGISLHEIPPDRRQKLEKARPGQFSGK
notes: as for B1
B5: ROS-GC1 (rod outer segment guanylate cyclase type 1), full-length recombinant (Bos taurus; A1013R/R981A) (protein)
chain: AVFTVGVLGPWACDPIFARARPDLAARLAASRLNHAAALEGGPRFEVALLPEPCRTPGSLGAVSSALTRVSGLVGPVNPAACRPAELLAQEAGVALVPWGCPGTRAAGTTAPVVTPAADALYALLRAFRWAHVALVTAPQDLWVEAGHALSTALRARGLPVALVTSMEPSDLSGAREALRRVQDGPRVRAVIMVMHSVLLGGEEQRCLLEAAEELGLADGSLVFLPFDTLHYALSPGPDALAVLANSSQLRKAHDAVLTLTRHCPLGGSVRDSLRRAQEHRELPLDLNLQQVSPLFGTIYDSVFLLAGGVARARVAAGGGWVSGAAVARHIRDARVPGFCGALGGAEEPSFVLLDTDATGDQLFATYVLDPTQGFFHSAGTPVHFPKGGRGPGPDPSCWFDPDTICNGGVEPSVVFIGFLLVVGMGLAGAFLAHYCRHRLLHIQMVSGPNKIILTLDDITFLHPHGGNSRKVAQGSRTSLAARSISDVRSIHSQLPDYTNIGLYEGDWVWLKKFPGDRHIAIRPATKMAFSKIRELRHENVALYLGLFLAGGAGGPAAPGEGVLAVVSEHCARGSLQDLLAQRDIKLDWMFKSSLLLDLIKGIRYLHHRGVAHGRLKSRNCVVDGRFVLKVTDHGHGRLLEAQRVLPEPPSAEDQLWTAPELLRDPVLERRGTLAGDVFSLGIIMQEVVCRSAPYAMLELTPEEVVKRVQSPPPLCRPSVSIDQAPMECIQLMKQCWAEQPELRPSMDRTFELFKSINKGRKMNIIDSMLRMLEQYSSNLEDLIRERTEELELEKQKTDRLLTQMLPPSVAEALKMGTPVEPEYFEEVTLYFSDIVGFTTISAMSEPIEVVDLLNDLYTLFDAIIGSHDVYKVETIGDAYMVASGLPQRNGHRHAAEIANMALDILSAVGTFRMRHMPEVPVRIAIGLHSGPCVAGVVGLTMPRYCLFGDTVNTASRMESTGLPYRIHVNRSTVQILSALNEGFLTEVRGRTELKGKGAEETYWLVGRRGFNKPIPKPPDLQPGASNHGISLHEIPPDRRQKLEKARPGQFSGK
notes: as for B1

substrate: Nc1nc2c(ncn2[C@@H]2O[C@H](COP(=O)(O)OP(=O)(O)OP(=O)(O)O)[C@@H](O)[C@H]2O)c(=O)[nH]1; test: cyclic GMP radioimmunoassay, COS cell membranes; Hill fit; assay type: biochemical, Bos taurus; details: constant Mg2+, GTP 0-3 mM, pH 7.5, 37 °C, half-maximal concentration from Hill equation

Protein | Km [µM]
B1 | 450 ± 20
B2 | 480 ± 40
B3 | 560 ± 30
B4 | 530 ± 30
B5 | 520 ± 30

— PMC5461267, “Membrane Guanylate Cyclase catalytic Subdomain: Structure and Linkage with Calcium Sensors and Bicarbonate” (Frontiers in Molecular Neuroscience, 2017)
